Source: patent US20250034266A1
Changes are numbered by the printed parent chain. Each block holds one binder with its values, some of them ahead of it.

Tests used:
human CCR8 (human) = human CCR8 (human) (UniProt P51685); assay: cell-based or functional assay
human CCR4 (human) = biological target: T1, human CCR4 (human) (UniProt P51679); assay: FACS on ExpiCHO-S-human CCR4 cells
T1 sequence (looked up): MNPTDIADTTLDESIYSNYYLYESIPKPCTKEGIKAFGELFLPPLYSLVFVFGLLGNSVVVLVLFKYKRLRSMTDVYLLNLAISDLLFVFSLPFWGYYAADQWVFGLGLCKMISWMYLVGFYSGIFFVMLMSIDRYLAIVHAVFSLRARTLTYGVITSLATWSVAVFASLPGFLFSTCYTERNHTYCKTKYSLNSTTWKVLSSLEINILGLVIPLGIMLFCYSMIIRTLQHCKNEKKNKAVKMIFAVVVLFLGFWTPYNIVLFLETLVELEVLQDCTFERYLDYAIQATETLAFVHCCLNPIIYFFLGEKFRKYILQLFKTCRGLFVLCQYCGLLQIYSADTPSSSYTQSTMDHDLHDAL

human CCR8 (human), sequence (P51685 whole entry): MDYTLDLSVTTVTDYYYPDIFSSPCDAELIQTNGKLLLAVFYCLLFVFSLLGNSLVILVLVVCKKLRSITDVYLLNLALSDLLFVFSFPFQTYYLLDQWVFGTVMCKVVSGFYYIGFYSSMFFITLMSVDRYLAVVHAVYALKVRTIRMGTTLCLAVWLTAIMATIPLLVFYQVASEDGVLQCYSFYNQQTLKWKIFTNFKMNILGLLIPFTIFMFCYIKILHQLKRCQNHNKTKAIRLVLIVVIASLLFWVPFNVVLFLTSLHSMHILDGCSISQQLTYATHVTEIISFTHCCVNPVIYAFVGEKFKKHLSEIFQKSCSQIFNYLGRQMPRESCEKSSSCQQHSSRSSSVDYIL

- EC50, ADCC reporter, F variant CD16a/NFAT-Jurkat, target CHO-K1-human CCR8 cells (human CCR8 (human)): 3.51 pM
- EC50, ADCC reporter, F variant CD16a/NFAT-Jurkat, target HuT78 cells (human CCR8 (human)): 4.6 pM
- EC50, ADCC reporter, V variant CD16a/NFAT-Jurkat, target CHO-K1-human CCR8 cells (human CCR8 (human)): 4.87 pM
- EC50, ADCC reporter, V variant CD16a/NFAT-Jurkat, target HuT78 cells (human CCR8 (human)): 5.59 pM
- EC50, ADCC with human PBMCs, target CHO-K1-human CCR8 cells (human CCR8 (human)): 0.384 pM
- Max (RLU), ADCC reporter, F variant CD16a/NFAT-Jurkat, target CHO-K1-human CCR8 cells (human CCR8 (human)): 8.34e+06 RLU
- Max (RLU), ADCC reporter, F variant CD16a/NFAT-Jurkat, target HuT78 cells (human CCR8 (human)): 1.51e+07 RLU
- Max (RLU), ADCC reporter, V variant CD16a/NFAT-Jurkat, target CHO-K1-human CCR8 cells (human CCR8 (human)): 4.09e+06 RLU
- Max (RLU), ADCC reporter, V variant CD16a/NFAT-Jurkat, target HuT78 cells (human CCR8 (human)): 9.06e+06 RLU
- Max specific lysis (%), ADCC with human PBMCs, target CHO-K1-human CCR8 cells (human CCR8 (human)): 44.2%
B1: Hu149-11G1x (antibody, V domains shown, not shown: a dimerising Fc or GST)
VH: EVQLVESGGGLVQPGGSLKLSCAASGFTFNTYAMNWVRQASGKGLEWVGRIRSKSNFYATAYAASVKGRFTISRDDSKNTAYLQMNSLKTEDTAVYYCTRGREYGSSYAMDYWGQGTLVTVSS
VL: DIVMTQSPLSLPVTPGEPASISCRSSKSLLHSNANTYLYWFLQKPGQSPQLLIYRMSNLASGVPDRFSGSGSGTDFTLKISRVEAEDVGVYYCMQHLEYPLTFGGGTKVELK

- Max MFI (human CCR4 (human)): 44 MFI
B2: Hu149-4 (antibody, human IgG1, V domains shown)
VH: B1 VH with A61Y, E103D
VL: B1 VL

- EC50, ADCC reporter, F variant CD16a/NFAT-Jurkat, target CHO-K1-human CCR8 cells (human CCR8 (human)): 2.99 pM
- EC50, ADCC reporter, F variant CD16a/NFAT-Jurkat, target HuT78 cells (human CCR8 (human)): 4.28 pM
- EC50, ADCC reporter, V variant CD16a/NFAT-Jurkat, target CHO-K1-human CCR8 cells (human CCR8 (human)): 5.05 pM
- EC50, ADCC reporter, V variant CD16a/NFAT-Jurkat, target HuT78 cells (human CCR8 (human)): 4.58 pM
- EC50, ADCC with human PBMCs, target CHO-K1-human CCR8 cells (human CCR8 (human)): 0.828 pM
- Max (RLU), ADCC reporter, F variant CD16a/NFAT-Jurkat, target CHO-K1-human CCR8 cells (human CCR8 (human)): 8.27e+06 RLU
- Max (RLU), ADCC reporter, F variant CD16a/NFAT-Jurkat, target HuT78 cells (human CCR8 (human)): 1.56e+07 RLU
- Max (RLU), ADCC reporter, V variant CD16a/NFAT-Jurkat, target CHO-K1-human CCR8 cells (human CCR8 (human)): 4.13e+06 RLU
- Max (RLU), ADCC reporter, V variant CD16a/NFAT-Jurkat, target HuT78 cells (human CCR8 (human)): 8.88e+06 RLU
- Max specific lysis (%), ADCC with human PBMCs, target CHO-K1-human CCR8 cells (human CCR8 (human)): 53%
B3: Hu149-12G1x (antibody, V domains shown, not shown: a dimerising Fc or GST)
VH: B1 VH with R102K
VL: B1 VL
